Reference: the supplement of paper PMC9876800

Tested on: peptide library, one residue held at a place counted from the S/T acceptor
Assay: relative phosphorylation of the sub-library (ratio to the mean residue at this position); higher = residue favoured
Outline: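 In 384-well plates, purified recombinant kinases (human or orthologue constructs) were incubated for 90 min under kinase-specific conditions with 50 μM biotinylated degenerate peptide sub-libraries and 50 μM ATP spiked with γ-32P-ATP. Each sub-library fixed a single residue at one position around a central Ser/Thr. Relative sub-library phosphorylation, measured by phosphorimaging and densitometry of streptavidin membrane spots, is given as a ratio to the mean residue at that position.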

Chain of MYLK, construct: aa1425-1771, human (Q15746 1425-1771, looked up): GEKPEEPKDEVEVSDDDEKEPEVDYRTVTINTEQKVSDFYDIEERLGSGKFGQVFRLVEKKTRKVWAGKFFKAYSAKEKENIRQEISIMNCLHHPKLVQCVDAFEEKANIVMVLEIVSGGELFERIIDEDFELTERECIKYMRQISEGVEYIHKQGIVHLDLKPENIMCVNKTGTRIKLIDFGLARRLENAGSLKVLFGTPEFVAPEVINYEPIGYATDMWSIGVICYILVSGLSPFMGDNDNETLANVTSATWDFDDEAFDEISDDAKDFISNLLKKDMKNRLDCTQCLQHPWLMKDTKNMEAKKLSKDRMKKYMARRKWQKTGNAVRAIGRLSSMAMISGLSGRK
Chain of NEK5, construct: aa1-508, human (Q6P3R8 1-508, looked up): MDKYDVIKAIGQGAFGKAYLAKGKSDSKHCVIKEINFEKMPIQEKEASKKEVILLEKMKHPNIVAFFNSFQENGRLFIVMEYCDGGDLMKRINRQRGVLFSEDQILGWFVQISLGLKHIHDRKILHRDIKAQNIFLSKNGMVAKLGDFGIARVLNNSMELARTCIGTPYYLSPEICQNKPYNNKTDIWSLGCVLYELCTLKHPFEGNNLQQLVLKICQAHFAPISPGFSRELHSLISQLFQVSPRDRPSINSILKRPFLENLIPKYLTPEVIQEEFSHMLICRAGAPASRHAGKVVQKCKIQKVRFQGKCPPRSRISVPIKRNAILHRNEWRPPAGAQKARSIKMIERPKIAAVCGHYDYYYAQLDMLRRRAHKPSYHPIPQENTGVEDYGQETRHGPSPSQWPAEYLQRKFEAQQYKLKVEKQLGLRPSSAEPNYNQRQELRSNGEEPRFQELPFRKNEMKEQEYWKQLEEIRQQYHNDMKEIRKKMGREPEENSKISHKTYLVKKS
Chain of MYLK4, construct: Full length, human (Q86YV6 whole entry, looked up): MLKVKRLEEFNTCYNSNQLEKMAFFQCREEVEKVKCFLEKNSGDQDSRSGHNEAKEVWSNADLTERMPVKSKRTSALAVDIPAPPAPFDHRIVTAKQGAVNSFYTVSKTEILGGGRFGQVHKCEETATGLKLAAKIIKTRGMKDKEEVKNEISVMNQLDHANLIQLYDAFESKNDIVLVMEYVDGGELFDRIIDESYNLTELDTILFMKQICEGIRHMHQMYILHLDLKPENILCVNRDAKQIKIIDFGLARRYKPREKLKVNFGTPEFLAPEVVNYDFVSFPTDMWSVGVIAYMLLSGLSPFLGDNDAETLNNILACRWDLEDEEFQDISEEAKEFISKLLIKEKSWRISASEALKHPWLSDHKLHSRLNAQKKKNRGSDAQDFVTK
Chain of MYO3A, construct: aa1-308, human (Q8NEV4 1-308, looked up): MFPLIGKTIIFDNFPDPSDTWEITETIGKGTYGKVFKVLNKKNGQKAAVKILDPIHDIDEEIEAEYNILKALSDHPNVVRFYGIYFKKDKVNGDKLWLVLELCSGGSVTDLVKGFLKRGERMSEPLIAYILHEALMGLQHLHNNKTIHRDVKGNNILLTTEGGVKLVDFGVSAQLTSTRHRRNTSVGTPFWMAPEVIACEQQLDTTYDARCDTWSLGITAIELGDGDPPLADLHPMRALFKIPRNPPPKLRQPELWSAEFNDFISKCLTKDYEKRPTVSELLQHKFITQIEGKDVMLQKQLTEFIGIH

MYLK4, construct: Full length, human (from UniProt Q86YV6)
relative phosphorylation
Settings	at +1	at +2	at +3	at +4	at -1	at -2	at -3	at -4	at -5
A fixed	0.96	0.643	0.61	0.778	0.871	0.876	0.764	1.09	0.837
D fixed	0.566	0.833	0.854	0.974	0.639	0.272	0.32	0.437	0.41
E fixed	0.776	1.04	0.652	0.871	0.49	0.273	0.339	0.628	0.432
F fixed	1.25	1.2	1.59	1.04	0.915	0.405	0.511	0.909	1.23
G fixed	0.814	0.588	0.715	0.858	0.533	0.468	0.544	1.01	0.735
H fixed	0.885	1.27	0.849	0.917	1.13	1.17	0.737	0.907	0.912
I fixed	1.01	1.03	1.05	1.27	0.817	0.485	0.63	1.02	1.25
K fixed	1.28	1.39	0.718	0.807	1.8	1.76	2.19	1.89	1.65
L fixed	1.03	1.02	1.27	1.33	1.74	0.412	0.455	0.915	1.24
M fixed	1.3	0.948	1.09	0.938	1.19	0.5	0.538	0.973	1.06
N fixed	0.921	0.946	1.01	1.05	1.34	0.588	0.498	0.826	0.694
P fixed	0.386	0.713	0.517	1.18	0.775	0.389	0.538	0.743	0.843
Q fixed	1.27	0.949	0.659	1.04	0.889	0.725	0.631	0.925	0.749
R fixed	1.55	1.41	0.808	0.818	1.49	7.39	6.83	2.06	1.85
V fixed	0.981	1.09	0.834	0.982	0.701	0.411	0.507	1.01	1
W fixed	1.13	0.89	2.75	1.27	0.839	0.466	0.517	0.719	0.852
Y fixed	0.888	1.04	1.04	0.883	0.848	0.416	0.449	0.936	1.26
pThr fixed	1.88	1.98	0.701	1.09	0.794	0.666	0.917	0.92	0.692
pTyr fixed	0.998	1.68	1.14	1.15	1.03	0.469	0.94	0.797	0.752

MYLK, construct: aa1425-1771, human (from UniProt Q15746)
relative phosphorylation
Settings	at +1	at +2	at +3	at +4	at -1	at -2	at -3	at -4	at -5
A fixed	0.785	0.75	0.611	0.755	0.803	0.95	0.781	0.743	0.704
D fixed	0.578	0.935	0.68	0.835	0.963	0.38	0.392	0.516	0.472
E fixed	0.631	0.874	0.625	0.747	0.696	0.378	0.403	0.586	0.483
F fixed	0.917	1.27	1.37	1.15	0.87	0.584	0.653	1.45	1.21
G fixed	0.781	0.599	0.713	0.906	0.933	0.631	0.586	0.819	0.737
H fixed	0.706	0.914	0.744	1.28	1.06	1.01	0.876	0.94	0.916
I fixed	1.49	0.99	2.08	0.946	0.789	0.499	0.7	1.06	1.06
K fixed	1.36	1.19	1.03	1.18	1.27	1.93	1.63	1.41	1.21
L fixed	1.01	1.09	1.65	0.952	1.13	0.505	0.619	0.898	1.08
M fixed	1.51	1.26	1.21	0.946	1.17	0.607	0.66	1.05	1.04
N fixed	0.873	0.86	0.771	1.03	1.55	0.834	0.591	0.723	0.677
P fixed	0.615	0.675	0.637	1.01	0.896	0.465	0.556	0.651	0.722
Q fixed	1.32	1.02	0.718	0.987	1.08	1.07	0.777	0.895	0.794
R fixed	1.59	1.56	1.06	1.22	1.49	5.45	5.91	1.86	1.89
V fixed	1.34	0.93	1.14	0.814	0.791	0.521	0.566	1	0.882
W fixed	0.676	0.749	0.907	1.27	0.636	0.594	0.611	1.03	0.875
Y fixed	0.819	1.33	1.05	0.96	0.874	0.587	0.69	1.35	2.24
pThr fixed	1.48	1.39	0.785	1.03	0.744	0.528	0.543	0.678	0.667
pTyr fixed	0.795	1.19	0.925	0.965	1.07	0.51	0.784	0.669	0.772

MYO3A, construct: aa1-308, human (from UniProt Q8NEV4)
relative phosphorylation
Settings	at +1	at +2	at +3	at +4	at -1	at -2	at -3	at -4	at -5
A fixed	0.412	0.7	0.734	0.973	0.971	0.873	1.07	0.953	1.14
D fixed	0.178	0.35	0.257	0.506	1.19	0.602	0.814	1.22	1.14
E fixed	0.151	0.271	0.229	0.425	0.697	0.382	0.772	1.19	1.08
F fixed	0.71	0.638	0.858	0.517	0.847	1.45	0.821	0.951	0.819
G fixed	0.559	0.815	0.815	1.34	1.81	0.691	1.05	1.12	1.12
H fixed	0.634	1.3	1.02	0.986	1.07	1.59	1.31	1.26	1.11
I fixed	1.65	0.572	0.801	0.72	0.345	0.684	0.789	0.801	0.823
K fixed	1.49	3.03	2.71	2.63	1.12	0.754	1.2	0.982	1.13
L fixed	2.17	0.728	1.08	0.771	0.976	0.498	0.683	0.74	0.629
M fixed	2.55	0.933	0.883	0.67	1.22	0.941	0.903	0.807	0.81
N fixed	0.61	0.737	0.835	0.853	1.29	1.21	1.16	1.19	1.06
P fixed	0.313	0.857	0.766	0.981	0.568	0.633	0.959	0.899	1.09
Q fixed	0.737	0.726	0.753	0.908	1.01	0.798	1.08	1.06	1.05
R fixed	1.95	2.8	2.77	2.32	1.26	1.2	1.16	0.835	1.18
V fixed	0.882	0.688	0.775	0.752	0.523	0.579	0.759	0.89	0.927
W fixed	1.01	0.908	0.756	1.01	0.886	1.49	1.26	1.11	0.83
Y fixed	0.985	0.947	0.956	0.643	1.21	2.62	1.21	0.993	1.08
pThr fixed	0.523	0.418	0.71	0.348	0.573	0.699	0.939	1.19	1.06
pTyr fixed	0.325	0.301	0.649	0.403	1.65	0.771	0.993	1.24	1.24

NEK5, construct: aa1-508, human (from UniProt Q6P3R8)
relative phosphorylation
Settings	at +1	at +2	at +3	at +4	at -1	at -2	at -3	at -4	at -5
A fixed	1.01	0.985	0.773	0.99	1.04	1.3	1.01	1.05	1.21
D fixed	0.278	0.417	0.524	0.792	0.791	1.17	0.548	1.14	1.18
E fixed	0.295	0.352	0.418	0.76	0.848	1.18	0.597	1.08	0.891
F fixed	1.25	0.913	1.34	0.978	0.649	0.857	1.71	0.997	1
G fixed	1.39	0.768	1.02	1.29	0.889	1.65	1.5	1.32	1.45
H fixed	0.864	1.15	1.07	1.2	1.1	1.17	1.07	1.05	1.02
I fixed	0.943	0.752	0.978	0.639	0.403	0.475	0.308	0.616	0.532
K fixed	1.04	1.74	0.986	1.26	1.74	0.692	0.927	1.11	1.06
L fixed	1.06	0.885	1.33	0.946	1.08	1.08	1.54	0.803	0.882
M fixed	1.82	1.1	1.15	0.968	1.16	1.18	1.5	1.06	0.969
N fixed	1.01	1.14	1.12	1.13	1.35	1.48	0.849	1.12	1.15
P fixed	0.238	0.735	0.987	1.31	0.504	0.692	1.35	1.19	1.39
Q fixed	1.61	1.01	0.868	1.05	1.31	0.958	0.729	0.869	0.844
R fixed	1.36	2.28	1.26	1	1.78	0.826	0.798	0.994	1.09
V fixed	0.902	0.846	0.812	0.701	0.624	0.482	0.318	0.531	0.655
W fixed	1	0.873	1.29	1.07	0.643	0.945	1.22	1.25	0.896
Y fixed	0.933	1.05	1.07	0.914	1.08	0.846	1.03	0.826	0.771
pThr fixed	0.498	0.581	0.612	0.602	0.407	0.745	0.844	1	1.2
pTyr fixed	0.429	0.401	0.715	0.562	0.879	1.12	1.01	1.01	1.15
